Laboratory results taken from patent US20260151494A1 (ARO BIOTHERAPEUTICS, published 2026).

Experiments:
[1] = target: T1, human CD71 extracellular domain (human, UniProt P02786 89-760, biotinylated); assay: primary ELISA; note: test concentration or dose not given here
T1 construct: also called hCD71; CD71-ECD

[2] = target: T2, apical domain of human CD71 (human, UniProt P02786 189-383, limits assumed); assay: primary ELISA; note: test concentration or dose not given here
T2 construct: domain: apical domain; Screen 4 panned on human apical domains, the ELISA text says only 'apical domain'

[3] = target: T1, human CD71 extracellular domain; assay: primary ELISA, RLU over HSA
[4] = target: T2, apical domain of human CD71; assay: primary ELISA, RLU over HSA

T2 sequence (P02786 189-383 limits assumed): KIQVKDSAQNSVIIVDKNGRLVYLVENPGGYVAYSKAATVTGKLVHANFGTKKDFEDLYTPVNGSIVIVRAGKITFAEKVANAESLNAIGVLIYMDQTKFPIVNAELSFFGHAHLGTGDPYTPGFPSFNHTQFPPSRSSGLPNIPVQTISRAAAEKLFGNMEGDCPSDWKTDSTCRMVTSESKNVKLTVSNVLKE
T1 sequence (P02786 89-760): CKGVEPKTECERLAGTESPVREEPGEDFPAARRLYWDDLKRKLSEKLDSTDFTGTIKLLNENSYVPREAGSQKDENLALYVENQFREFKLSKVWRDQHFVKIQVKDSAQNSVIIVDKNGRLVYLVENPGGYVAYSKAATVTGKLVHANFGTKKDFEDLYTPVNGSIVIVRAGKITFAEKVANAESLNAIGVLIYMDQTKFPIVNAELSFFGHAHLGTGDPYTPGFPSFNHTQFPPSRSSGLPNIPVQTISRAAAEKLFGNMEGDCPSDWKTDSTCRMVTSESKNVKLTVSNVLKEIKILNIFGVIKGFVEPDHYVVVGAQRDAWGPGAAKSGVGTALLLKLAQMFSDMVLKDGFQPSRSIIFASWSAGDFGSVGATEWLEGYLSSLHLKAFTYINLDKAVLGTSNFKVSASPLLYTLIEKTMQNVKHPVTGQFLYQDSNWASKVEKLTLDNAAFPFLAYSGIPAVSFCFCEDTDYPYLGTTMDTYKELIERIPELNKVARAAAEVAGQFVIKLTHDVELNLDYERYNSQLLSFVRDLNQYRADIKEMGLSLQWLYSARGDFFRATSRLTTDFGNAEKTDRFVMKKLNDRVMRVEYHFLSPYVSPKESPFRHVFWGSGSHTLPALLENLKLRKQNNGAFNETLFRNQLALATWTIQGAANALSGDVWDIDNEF

Binder | RLU [1] [RLU] | RLU [2] [RLU] | hCD71:HSA [3] | Apical domain:HSA [4]
CD71-binding FN3 domain of SEQ ID NO: 479 (designed binder) MLPAPKNLVVSRVTEDSARLSWTAPDAAFDSFFIGYLEPQPPGEAINLWVPGSERSYDLTGLKPGTEYNVTIQGVKGGFPSTPLFAGFTT | 2.66e+06 | 4.83e+06 | 206 | 373
CD71-binding FN3 domain of SEQ ID NO: 485 (designed binder) MLPAPKNLVVSRVTEDSARLSWTAPDAAFDSFFIGYLEPQPPGEAIHLWVPGSERSYDLTGLKPGTEYNVTIQGVKGGFPSLPLLAKFTT | 2.47e+06 | 3.23e+06 | 66 | 86
CD71-binding FN3 domain of SEQ ID NO: 483 (designed binder) MLPAPKNLVVSRVTEDSARLSWTAPDAAFDSFFIGYLEPQPPGEAITLVVPGSERSYDLTGLKPGTEYNVTIQGVKGGFPSDPLVASFTT | 3.05e+06 | 3.47e+06 | 136 | 154
CD71-binding FN3 domain of SEQ ID NO: 481 (designed binder) MLPAPKNLVVSRVTEDSARLSWTAPDAAFDSFFIGYLEPQPPGEAITLYVPGSERSYDMTGLKPGTEYNVTIQGVKGGFPSLPLQAHFTT | 3.71e+06 | 3.65e+06 | 816 | 803
CD71-binding FN3 domain of SEQ ID NO: 482 (designed binder) MLPAPKNLIVSRVTEDSARLSWTAPDAAFDSFFIGYLEPQPPGEAIHLQVPGSERSYDLTGLKPGTEYNVTIQGVKGGFPSNPLHAEFTT | 2.23e+06 | 2.66e+06 | 247 | 295

Next, values leading:

RLU [1] [RLU] | RLU [2] [RLU] | hCD71:HSA [3] | Apical domain:HSA [4] | Binder
3.2e+06 | 3.32e+06 | 356 | 369 | CD71-binding FN3 domain of SEQ ID NO: 494 (designed binder) MLPAPKNLVVSRVTEDSARLSWTTPDAAFDSFFIGYLEPQPPGEAISLYVPGSERSYDLTGLKPGTEYNVTIQGVKGGFPSMPLSAIFTT
5.27e+06 | 5.66e+06 | 43 | 47 | CD71-binding FN3 domain of SEQ ID NO: 496 (designed binder) MLPAPKNLVVSRVTEDSARLSWTAPDAAFDSFFIGYLEPQPPGEAIILWVPGSERSYDLTGLKPGTEYNVTIQGVKGGFPSVPLIAQFTT
1.75e+06 | 1.98e+06 | 297 | 335 | CD71-binding FN3 domain of SEQ ID NO: 486 (designed binder) MLPAPENLVVSRVTEDSARLSWTALDAAFDSFFIGYLEPQPPGEAISLLVPGSERSYDLTGLKPGTEYNVTIQGVKGGIASEPLSAAFTT
2.75e+06 | 2.5e+06 | 190 | 172 | CD71-binding FN3 domain of SEQ ID NO: 493 (designed binder) MLPAPKNLVVSRVTEDSARLSWTAPDAAFDSFFIGYLEPQPPGEAILLAVPGSERSYDLTGLKPGTEYNVTIQGVKGGFPSLPLVAHFTT
2.27e+06 | 3.43e+06 | 146 | 220 | CD71-binding FN3 domain of SEQ ID NO: 487 (designed binder) MLPAPKNLVVSRVTEDSARLSWTAPDAAFDSFFIGYLEPQPPGEAIGLRVPGSERSYDLTGLKPGTEYNVTIQGVKGGFPSEPLIADFTT
4.15e+06 | 2.9e+06 | 403 | 281 | CD71-binding FN3 domain of SEQ ID NO: 490 (designed binder) MLPAPKNLVVSRVTEDSARLSWTAPDAAFDSFFIGYLEPQPPGEAISLQVPGSERSYDLTGLKPGTEYNVTIQGVKGGFPSAPLVANFTT
4.66e+06 | 5.07e+06 | 265 | 288 | CD71-binding FN3 domain of SEQ ID NO: 491 (designed binder) MLPAPKNLVVSRVTEDSARLSWTAPDAAFDSFFIGYLEPQPSGEAIHLIVPGSERSYDLTGLKPGTEYNVTIQGVKGGFPSDPLVASFTT
